Source: article PMC11375011, “Inducible auto-phosphorylation regulates a widespread family of nucleotidyltransferase toxins” (Nature Communications, 2024)
“Also recorded” adds a separate entry of the source.

Target: MenA1
Conditions: sites T39

## MenT1
  other: observed/calculated Stokes radius ratio against the heterotrimer: weaker; reference 0.97; also recorded: same; reference 0.97
